Test results: US20100273722
No end group written: not given here.

Legend:
[1] = sedimentation equilibrium AUC, self-association, 25 C
[2] = sedimentation equilibrium AUC, self-association, 5 C
[3] = sedimentation equilibrium AUC, self-association, 10 C
[4] = sedimentation equilibrium AUC, self-association, 15 C
[5] = sedimentation equilibrium AUC, self-association, 20 C
[6] = sedimentation equilibrium AUC, self-association, 30 C

Protein | % monomer at 30 µM [1] | other results
GPSQPEAPGDDAPVEDLIRFYDNLQQYLNVVTRHRY-NH2 [aPP^Y7AT6E] | 79% | –
GPSQPTAPGDDAPVEDLIRFYDNLRQYLNVVTRHRY-NH2 [aPP^Y7AQ25R] | 78% | –
GPSQPTAPGDDAVPEDLIRFYDNLQQYLNVVTRHRY-NH2 [aPP^Y7AP13VV14P] | 90% | –
GPSQPTAPGDDASPEDLIRFYDNLQQYLNVVTRHRY-NH2 [aPP^Y7AP13SV14P] | – | % monomer at 30 micromolar total peptide [2]: 74%; % monomer at 30 micromolar total peptide [3]: 82%; % monomer at 30 micromolar total peptide [4]: 84%; % monomer at 30 micromolar total peptide [5]: 90%; % monomer at 30 micromolar total peptide [1]: 90%; % monomer at 30 micromolar total peptide [6]: 98%
GPSQPTYPGDDAPVEDLIRFYDNLQQYLNVVTRHRY (ends and bridges not checked) [avian pancreatic polypeptide (aPP)] | 23% | –
GPSQPTYPGDDAPVEDLIRFADNLQQYLNVVTRHRY-NH2 [aPP^Y21A] | 14% | –
GPSQPTYPGDDAPVEDLIRAYDNLQQYLNVVTRHRY-NH2 [aPP^F20A] | 100% | –
GPSQPTAPGDDAPVEDLIRFYDNLQQYLNVVTRHRY-NH2 [aPP^Y7A] | 98% | –
